Test results published in US20200062863A1 (CSL BEHRING, published 2020).
Substitutions are numbered along the chain they refer to. Where two headings read alike, the source gives them in different places. One block for each molecule: values may come before it.

Columns and labels:
human FXIIa [1] = biological target: T1, human FXIIa (human, UniProt P00748 20-615, limits assumed)
T1 sequence: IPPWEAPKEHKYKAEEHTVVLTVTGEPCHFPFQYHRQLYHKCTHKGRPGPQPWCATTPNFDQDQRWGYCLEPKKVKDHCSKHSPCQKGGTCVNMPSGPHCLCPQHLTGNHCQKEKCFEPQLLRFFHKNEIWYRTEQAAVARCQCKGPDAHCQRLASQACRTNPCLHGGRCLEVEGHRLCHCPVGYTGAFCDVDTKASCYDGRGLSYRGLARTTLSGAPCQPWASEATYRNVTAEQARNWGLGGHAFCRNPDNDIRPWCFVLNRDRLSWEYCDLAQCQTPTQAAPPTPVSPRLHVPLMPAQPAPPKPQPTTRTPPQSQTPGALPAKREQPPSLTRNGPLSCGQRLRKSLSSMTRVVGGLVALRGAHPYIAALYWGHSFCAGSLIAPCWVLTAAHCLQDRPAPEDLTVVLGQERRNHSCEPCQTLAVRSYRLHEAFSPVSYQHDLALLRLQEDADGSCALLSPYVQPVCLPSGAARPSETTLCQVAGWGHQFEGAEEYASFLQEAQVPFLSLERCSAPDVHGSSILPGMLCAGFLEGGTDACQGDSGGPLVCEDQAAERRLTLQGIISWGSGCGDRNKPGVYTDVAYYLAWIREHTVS

human FXIIa [2] = biological target: T1, human FXIIa; assay: competition phage ELISA on plate-coated FXIIa; competed binder: Inf4-phage (pTacInf4) at a fixed amount
human FXIIa [3] = biological target: T1, human FXIIa; assay: competition phage ELISA on plate-coated FXIIa; competed binder: 3H4 Fab-phage at a fixed amount
human Factor XIIa-alpha = biological target: T2, human Factor XIIa-alpha (human, UniProt P00748 20-615); assay: cell-based or functional assay
T2 sequence: T1 sequence

human FXIIa [4] = biological target: T1, human FXIIa; assay: competition phage ELISA on plate-coated FXIIa; competed binder: 3F7 Fab-phage at a fixed amount
human Factor XIIa-beta [5] = biological target: T3, human Factor XIIa-beta (human, UniProt P00748 354-615, limits assumed); assay: SPR (Biacore A100), unpurified IgG4 supernatant captured on anti-human IgG, single FXIIa beta concentration (100 nM), 37 C, 1:1 fit; estimated
T3 construct: Bought from Enzyme Research Laboratories; also called FXIIa beta; FXIIa-beta
T3 sequence: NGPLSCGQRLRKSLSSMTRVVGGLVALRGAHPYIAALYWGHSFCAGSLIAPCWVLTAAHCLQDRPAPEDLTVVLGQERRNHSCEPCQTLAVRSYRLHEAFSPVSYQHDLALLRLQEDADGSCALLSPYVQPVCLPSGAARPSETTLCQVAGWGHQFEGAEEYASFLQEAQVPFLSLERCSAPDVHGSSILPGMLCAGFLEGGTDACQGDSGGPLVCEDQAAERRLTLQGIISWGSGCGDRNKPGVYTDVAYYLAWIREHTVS
Description: Anti-human (Goat anti-human IgG (gamma) mouse adsorbed, Invitrogen, Cat No. H10500) was chemically immobilised on a CM-5 sensor surface using amine coupling chemistry. Culture supernatants were diluted 1/60 with running buffer before capture. Antibodies were captured for 180 seconds representing an average capture of 800 response units (RU). FXIIa beta was then injected at zero and 100 nM for 180 seconds, and dissociated for 180 seconds. All assays were conducted on a Biacore A100 instrument at 37 degrees Celsius and the data fitted to a 1:1 kinetic model.

human Factor XIIa-beta [6] = biological target: T3, human Factor XIIa-beta; assay: SPR (Biacore), purified IgG4 captured on anti-human IgG, FXIIa beta 0-40 nM, 1:1 fit, 25 C
human Factor XIIa-beta [7] = biological target: T3, human Factor XIIa-beta; assay: SPR (Biacore), KD against parental 3F7

Molecule: rHA-Infestin-4 (recombinant Infestin-4 fused to human albumin)
IC50 (read off the curve) (human FXIIa [1]): 9 nM | IC50 (read off the curve) (human FXIIa [2]): 3 nM | IC50 (read off the curve) (human FXIIa [3]): 5 nM | % Inhibition, ratio FXIIa-alpha:inhibitor 1:1 (human Factor XIIa-alpha): 90% | IC50 (read off the curve) (human FXIIa [4]): 5 nM

B1: VR63 (antibody, V domains shown)
VH: EVQLLESGGGLVQPGGSLRLSCAASGFTFSKYIMQWVRQAPGKGLEWVSGIRPSGGTTVYADSVKGRFTISRDNSKNTLYLQMNSLRAEDTAVYYCARALPRSGYLISPHYYYYALDVWGQGTTVTVSS
VL: QSELTQPPSASGTPGQRVTISCSGSSSNIGRNYVYWYQQVPGTAPKLLIYSNNQRPSGVPDRFSGSKSGTSASLVISGLRSEDEADYYCAAWDNQVRLGFGGGTKLTVLG
notes: Libraries were built on germline stop templates, so frameworks may differ
Kd (human Factor XIIa-beta [5]): 8.3 nM

B2: VR62 (antibody, V domains shown)
VH: B1 VH
VL: QSVLTQPPSASGTPGQRVTISCSGSSSNIGRNYVYWYQQLPGTAPKLLIYSNNQRPSGVPDRFSGSKSGTSASLAISGLRSEDEADYYCAAWDQQVRLDFGGGTKLTVL
notes: as for B1
Kd (human Factor XIIa-beta [5]): 5.81 nM

B4: VR53 (antibody, V domains shown)
VH: B1 VH
VL: B2 VL with L98K, D99T
notes: as for B1
Kd (human Factor XIIa-beta [5]): 7.05 nM

B9: VR14 (antibody, V domains shown)
VH: B1 VH
VL: B2 VL with S27G, N28M, I29V, G30E, R31Q, Q94A, Q95S, V96L, L98G, D99V
notes: as for B1
Kd (human Factor XIIa-beta [5]): 6.22 nM

B10: VR39 (antibody, V domains shown)
VH: B1 VH
VL: B2 VL with A91S, D93W, Q94N, Q95D, V96L, L98G, D99V
notes: as for B1
Kd (human Factor XIIa-beta [5]): 5.63 nM

B11: VR148 (antibody, V domains shown)
VH: B1 VH with I107V, S108K, P109K, H110Q
VL: B1 VL with N94A, Q95S, V96L, L98G, G99V
notes: as for B1
Kd (human Factor XIIa-beta [5]): 6.93 nM

Further molecules by falling Kd (human Factor XIIa-beta [5]), results first:

Kd (human Factor XIIa-beta [5]): 5.33 nM
B6: VR58 (antibody, V domains shown)
VH: B1 VH
VL: B2 VL with Q94P, D99A
notes: as for B1

Kd (human Factor XIIa-beta [5]): 3.33 nM
B7: VR101 (antibody, V domains shown)
VH: B1 VH with R52N, S54A, G55T, G56R, T57S
VL: B1 VL with N94A, Q95S, V96L, L98G, G99V
notes: as for B1

Kd (human Factor XIIa-beta [5]): 2.81 nM
B8: VR108 (antibody, V domains shown)
VH: B1 VH with R52N, S54A, G55T, G56K
VL: B1 VL with N94A, Q95S, V96L, L98G, G99V
notes: as for B1

Kd (human Factor XIIa-beta [5]): 2.04 nM | Kd (human Factor XIIa-beta [6]): 0.35 nM | koff (human Factor XIIa-beta [6]): 3.9e-05 s⁻¹ | kon (human Factor XIIa-beta [6]): 110000 M⁻¹ s⁻¹ | Fold affinity improvement (human Factor XIIa-beta [7]): 25 fold | % Inhibition, ratio FXIIa-alpha:Antibody 1:0.1 (human Factor XIIa-alpha): 33.7% | % Inhibition, ratio FXIIa-alpha:Antibody 1:0.2 (human Factor XIIa-alpha): 66.9% | % Inhibition, ratio FXIIa-alpha:Antibody 1:0.5 (human Factor XIIa-alpha): 100% | % Inhibition, ratio FXIIa-alpha:Antibody 1:1 (human Factor XIIa-alpha): 100% | % Inhibition, ratio FXIIa-alpha:Antibody 1:2 (human Factor XIIa-alpha): 100% | % Inhibition, ratio FXIIa-alpha:Antibody 1:5 (human Factor XIIa-alpha): 100% | % Inhibition, ratio FXIIa-alpha:Antibody 1:10 (human Factor XIIa-alpha): 100%
B5: VR110 (antibody, V domains shown)
VH: B1 VH with R52D, P53M, S54P, G55T, G56K, T57G
VL: B1 VL with N94A, Q95S, V96L, L98G, G99V

Kd (human Factor XIIa-beta [5]): 1.63 nM | Kd (human Factor XIIa-beta [6]): 0.26 nM | koff (human Factor XIIa-beta [6]): 6.4e-05 s⁻¹ | kon (human Factor XIIa-beta [6]): 240000 M⁻¹ s⁻¹ | Fold affinity improvement (human Factor XIIa-beta [7]): 33 fold | % Inhibition, ratio FXIIa-alpha:Antibody 1:0.1 (human Factor XIIa-alpha): 34.5% | % Inhibition, ratio FXIIa-alpha:Antibody 1:0.2 (human Factor XIIa-alpha): 67.3% | % Inhibition, ratio FXIIa-alpha:Antibody 1:0.5 (human Factor XIIa-alpha): 99.7% | % Inhibition, ratio FXIIa-alpha:Antibody 1:1 (human Factor XIIa-alpha): 100% | % Inhibition, ratio FXIIa-alpha:Antibody 1:2 (human Factor XIIa-alpha): 100% | % Inhibition, ratio FXIIa-alpha:Antibody 1:5 (human Factor XIIa-alpha): 100% | % Inhibition, ratio FXIIa-alpha:Antibody 1:10 (human Factor XIIa-alpha): 100%
B3: VR24 (antibody, V domains shown)
VH: B1 VH
VL: QSVLTQPPSASGTPGQRVTISCSGSSEMTVHHYVYWYQQLPGTAPKLLIYSNNQRPSGVPDRFSGSKSGTSASLAISGLRSEDEADYYCAAWDASLRGVFGGGTKLTVLG
